In US20250340649A1 (RUTGERS THE STATE UNIVERSITY OF NEW JERSEY, published 2025):
Where two headings read alike, the source gives them in different places.

T1: biotinylated CD32b (UniProt P31994 46-217, biotinylated)
T1 construct: also called CD32b antigen
T1 sequence (looked up): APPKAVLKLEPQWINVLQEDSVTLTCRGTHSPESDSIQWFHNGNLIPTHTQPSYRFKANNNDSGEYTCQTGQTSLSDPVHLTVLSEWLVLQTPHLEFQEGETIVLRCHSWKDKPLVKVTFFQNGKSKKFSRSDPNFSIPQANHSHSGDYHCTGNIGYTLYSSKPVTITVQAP

B1: A1 anti-HER2 VHH (VHH)
VHH: QVQLQESGGGLVQPGGSLRLSCAASGHTLSTYVVAWFRQAPGKERESVAAIGWSSRSPYYPDSVKGRFTISEDNTKNTVYLQMNSLKPDDTAVYYCAADSYPRRWDRESDFGSWGQGTQVTVSS
notes: Llama VHH expressed in WK6 E. coli with C-terminal c-myc and His tags; also called A1 clone
B2: E3 anti-CD16a VHH (VHH)
VHH: QVQLQESGGGLVQAGGSARLSCAASGRTFRLYRMGWFRQAPGKEREFVASIKMIDGSSLFGDPVKGRFTISRDNTKFMVYLQMNSLKPEDTAVYYCASVSRNTGSWDSWGQGTQVTVSSYPYDVPDYAHHHHHHHH
notes: also called E3 clone; E3 VHH
B3: E5 anti-HER2 VHH (VHH)
VHH: QVQLQESGGGLVQAGGSLRLDCAASGRTLSSYVVGWFRQAPGKEREVVAAIGWSRTSTFYTDSVKGRFTISRDNTENTVYLQMNSLKPGDTAVYYCAADSSPRRWDRESDFGSWGQGTQVTVSS
notes: also called E5 clone

What was measured:
[1] = molecular target: T2, CD16b on neutrophils (human, UniProt O75015 17-200); assay: flow cytometry, neutrophils (CD16b+); value at the PE-H+ gate inside the histogram
T2 construct: whole, on cells; also called neutrophils (CD16b+)
T2 sequence (O75015 17-200): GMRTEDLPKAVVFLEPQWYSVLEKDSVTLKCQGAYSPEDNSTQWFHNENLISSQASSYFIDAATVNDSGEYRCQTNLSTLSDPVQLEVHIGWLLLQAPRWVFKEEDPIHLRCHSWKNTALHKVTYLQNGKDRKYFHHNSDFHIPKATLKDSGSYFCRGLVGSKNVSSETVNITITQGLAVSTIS

[2] = molecular target: T3, CD16a on NK92 (CD16+) cells (human, UniProt P08637 17-254); assay: flow cytometry, NK92 cells (CD16a+)
T3 construct: whole, on cells; also called NK92 cells (CD16a+); haNK92 cells (CD16a+)
T3 sequence (P08637 17-254 F176V): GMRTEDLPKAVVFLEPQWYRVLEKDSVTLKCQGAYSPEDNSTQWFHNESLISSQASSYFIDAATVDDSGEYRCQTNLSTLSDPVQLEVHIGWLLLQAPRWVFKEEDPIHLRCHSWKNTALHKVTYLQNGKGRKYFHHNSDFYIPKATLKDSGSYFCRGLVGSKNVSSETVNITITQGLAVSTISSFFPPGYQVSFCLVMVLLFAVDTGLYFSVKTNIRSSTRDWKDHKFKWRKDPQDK

[3] = molecular target: T2, CD16b on neutrophils; assay: flow cytometry, neutrophils (CD16b+); value of the drawn table
[4] = molecular target: T2, CD16b on neutrophils; assay: flow cytometry, neutrophils (CD16b+)
[5] = molecular target: HER2 on the surface of HER2+ cancer cells (BT474, SKOV-3) (human) (UniProt P04626); assay: flow cytometry on SKOV-3 cells (HER2+)
[6] = molecular target: HER2 on the surface of HER2+ cancer cells (BT474, SKOV-3) (human) (UniProt P04626); assay: flow cytometry on BT-474 cells (HER2+)
[7] = molecular target: T2, CD16b on neutrophils; assay: flow cytometry, neutrophils (CD16b+); value at the PE-H- gate inside the histogram
[8] = molecular target: T4, Biotinylated Human Her2/ErbB2 Protein, His, Avitag (AcroBiosystem HE2-H82E2) (human, UniProt P04626 23-652, biotinylated (Avitag)); assay: BLI (Octet), biotinylated HER2 on streptavidin sensor
T4 construct: Bought protein; Loaded on streptavidin sensors for BLI; also called biotinylated HER2; HER2 antigen

[9] = molecular target: T5, HER2 on the surface of HER2+ cancer cells (BT474, SKOV-3) (human, UniProt P04626 23-1255); assay: flow cytometry on SKOV-3 cells (HER2+), 100 nM binding sites
T5 construct: whole, on cells; also called human epidermal growth factor receptor 2
Experimental: (§1) OVASC-1 is an ascites-derived epithelial ovarian cancer cells obtained from a patient with advanced metastatic disease (11, 12). The expressed VHHs were then incubated with HER2⁺ (BT474, JIMT-1, and SKOV-3) and HER2⁻ (MDA-MB-231) cancer cell lines. Approximately 10⁶ cells were counted and washed using DPBS-1% FBS. […] After washing, FITC-conjugated anti-Human IgG or anti-Histag antibody were added and incubated on ice for 60 min. Cells were washed three times and then analyzed using Beckman-Coulter Gallios flow cytometer at Rutgers Flow cytometry core facility.
(§2) In the next step, the ability of the VHHs to recognize and bind to HER2 on the surface of HER2+ cancer cells was evaluated. […] MDA-MB-231 and OVASC-1 (HER2⁻) cancer cells were used as negative controls.

[10] = molecular target: T4, Biotinylated Human Her2/ErbB2 Protein, …; assay: BLI (Octet), biotinylated HER2 on streptavidin sensor, VHH 1.875-60 nM
[11] = molecular target: T5, HER2 on the surface of HER2+ cancer …; assay: flow cytometry on BT-474 cells (HER2+), 100 nM binding sites
Experimental: as §1, §2

[12] = molecular target: T6, HER1 (human, UniProt P00533 25-645); assay: ELISA, periplasmic extract on coated antigen, anti-HA-HRP
T6 construct: The text says only 'HER1'; also called Recombinant human EGFR protein (Fc Chimera), Abcam ab155726; Fc part of the bought chimera not given
Description: (§3) FIGS. 4A-4B. FIG. 4A) PBMCs were isolated using Ficoll-Paque method. Then, the RNAs were extracted, cDNA library was generated, genes amplified, and then cloned into pMECS-GG phagemids. The phagemids were used in phage display and the screened candidates were used to infect TG1 bacteria. Colonies were selected, grown, lysed, and the lysates removed. FIG. 4B) The lysates were then used in ELISA to screen for VHHs with the highest affinity to HER2 and with negligible binding to HER1, HER3, and HER4. Bovine serum albumin (BSA) and skim milk were used as controls.
(§4) The next day, each well was washed three times with washing buffer (DPBS+0.1% Tween 20) and then incubated with blocking buffer (2% skimmed milk) for 2 h at RT to block the free binding sites. Next, blocking buffer was replaced with 100 μL of periplasmic extract from above and incubated for 1 h at RT while shaking at 700 rpm. Each well was washed six times with washing buffer (DPBS+0.1% Tween 20) followed by addition of 100 μL HRP Anti-HA tag antibody (1:10000 dilution) and incubation for 1 h at RT while shaking at 700 rpm. Each well was washed again six times, followed by addition of 50 μL 1-Step™ Turbo TMB-ELISA substrate solution at incubation at RT for 15 min (without shaking and at dark). The reaction was stopped by adding 50 μL of stop solution ([…] sulfuric acid) and the plate was read at 450 nm using 630 nm as a reference (450/630 nm).

[13] = molecular target: T7, Bovine serum albumin (bovine, UniProt P02769 25-607); assay: as above
T7 construct: Control antigen; also called BSA
T7 sequence (P02769 25-607 limits assumed): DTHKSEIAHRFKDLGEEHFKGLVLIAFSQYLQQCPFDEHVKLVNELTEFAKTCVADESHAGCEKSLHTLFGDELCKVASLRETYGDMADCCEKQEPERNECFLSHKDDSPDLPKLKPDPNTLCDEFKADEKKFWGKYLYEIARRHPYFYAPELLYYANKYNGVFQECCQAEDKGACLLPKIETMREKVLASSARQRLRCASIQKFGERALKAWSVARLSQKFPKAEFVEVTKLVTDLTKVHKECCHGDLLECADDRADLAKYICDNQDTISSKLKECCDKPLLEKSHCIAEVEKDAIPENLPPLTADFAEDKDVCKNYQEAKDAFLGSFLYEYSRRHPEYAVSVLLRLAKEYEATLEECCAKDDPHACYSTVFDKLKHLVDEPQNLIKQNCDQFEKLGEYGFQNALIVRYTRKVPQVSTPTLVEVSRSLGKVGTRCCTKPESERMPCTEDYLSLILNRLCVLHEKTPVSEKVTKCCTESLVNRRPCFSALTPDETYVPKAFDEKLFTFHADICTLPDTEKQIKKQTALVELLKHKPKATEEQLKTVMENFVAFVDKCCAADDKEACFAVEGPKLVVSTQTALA
Description: as §3, §4

[14] = molecular target: T8, HER3 (human, UniProt P21860 20-643, limits assumed); assay: as above
T8 construct: also called Recombinant Human ErbB 3 protein, Abcam ab196072
Description: as §3, §4

[15] = molecular target: T9, Biotinylated Human Fc gamma RIIIB/CD16b (NA1) Protein, His, Avitag (Acrobiosystems CDB-H82E4) (human, UniProt O75015 17-200, biotinylated (Avitag)); assay: BLI (Octet), biotinylated CD16b-NA1 on streptavidin sensor, VHH 1.875-60 nM
T9 construct: NA1 allele; also called CD16b-NAI
T9 sequence (O75015 other isoform, or with tags, fused parts or gaps limits assumed): as the sequence (O75015 17-200) above, with S20R, N66D, I90V counted along it
Experimental: (§5) An Octet® Streptavidin (SA) Biosensor was soaked for at least 10 min in DPBS supplemented with 0.1% Casein, biotinylated CD16a, CD16b-NA1, CD16b-NA2, and HER2 antigens were loaded onto the streptavidin (SA) biosensor until 1 nm shift was reached. Next, the sensor was dipped into the washing buffer (DPBS+0.05% Tween 20+0.1% Casein) for 2 min to reach the baseline. […] Then, in the dissociation step, sensors were dipped into the washing buffer for 5 min to acquire data (Table 5). The data were then analyzed using Octet Data Analysis HT 11.1 software. The sensorgrams were subtracted from the reference and fitted into 1:1 binding model for data analysis. Finally, the affinity and kinetics were analyzed using “Association and Dissociation”.

[16] = molecular target: T2, CD16b on neutrophils; assay: flow cytometry on neutrophils (CD16b+)
Experimental: For flow cytometry, haNK92 cells (CD16a+) and Neutrophils (CD16b⁺) were used. […] The human Neutrophil cells were purchased from HemaCare and cultured according to the manufacturer's protocol. First, both cell lines were harvested and washed once using DPBS supplemented with 2% FBS (2% DPBS-FBS). For each sample, 0.5×10⁶ cells were stained with antibody on ice for 60 min. In this experiment, 3G8 monoclonal antibody was used as a positive control. This antibody binds to both CD16a and CD16b. Following washing three times, the secondary antibody, anti-Histag antibody FITC labeled, was added. After washing, the samples were run on Cytoflex using FL2 channel.
In this experiment, NK92 cells (CD16a⁺), neutrophils (CD16b⁺), and B cells (CD32b⁺) were used as cell controls. 3G8 (anti-CD16a/b) and AT10 (anti-CD32a/b) mAbs were used as antibody controls.

[17] = molecular target: T10, Biotinylated Human Fc gamma RIIIA/CD16a (F176) Protein, Avitag, His Tag (Acrobiosystems CDA-H82E8) (human, UniProt P08637 17-208, biotinylated (Avitag)); assay: BLI (Octet), biotinylated CD16a on streptavidin sensor, VHH 1.875-60 nM
T10 construct: also called biotinylated CD16a; CD16a antigen
T10 sequence (P08637 17-208 limits assumed): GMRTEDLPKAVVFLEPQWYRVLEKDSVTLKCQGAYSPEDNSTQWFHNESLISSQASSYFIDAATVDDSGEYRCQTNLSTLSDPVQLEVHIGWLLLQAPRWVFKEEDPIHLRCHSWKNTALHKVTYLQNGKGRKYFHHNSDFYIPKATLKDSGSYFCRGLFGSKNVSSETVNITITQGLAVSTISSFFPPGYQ
Experimental: as §5

[18] = molecular target: T1, biotinylated CD32b; assay: ELISA, biotinylated antigen on streptavidin plate
Experimental: The purified VHHs were subjected to functional analysis using ELISA and flow cytometry. For ELISA, 50 μL of biotinylated CD16a, CD16b-NA1, CD16b-NA2, and CD32b were added to the streptavidin-coated plate and incubated for 45 min at RT. Following washing, the 100 μL of 100 nM purified VHHs were added and incubated at RT for 1 h. Next, 100 μL anti-HA tag HRP conjugated secondary antibody was added. Finally, the substrate was added for color development, and the plate was read using OD of 450 nm.
CD32b and skim milk were also used as antigen controls. 3G8 and eBioCB16, which are anti-CD16a/b mAbs were used as antibody controls. […] CD32b is a receptor that is expressed on B cells and responsible for inhibiting B cell activation. One of the disadvantages of mAb-based therapies is the binding of their Fc region to CD32b leading to the diminished activity of humoral immunity.

[19] = molecular target: T4, Biotinylated Human Her2/ErbB2 Protein, …; assay: BLI (Octet), biotinylated HER2 on streptavidin sensor, VHH 1.875-60 nM; remark: listed apart in the source
[20] = molecular target: T4, Biotinylated Human Her2/ErbB2 Protein, …; assay: ELISA on HER2, tenfold dilutions 0-1000 nM; the HER2 form is not stated for this ELISA, Table 17 lists only the biotinylated HER2
[21] = molecular target: T5, HER2 on the surface of HER2+ cancer …; assay: flow cytometry, SKOV-3 (HER2+) cells, tenfold dilutions 0.001-1000 nM

Row | Molecule | FITC+ [2] | FITC- [2] | MFI [2] | MFI [4] | Kd [8] | FITC+ (%) [9] | FITC- (%) [9] | Mean (MFI) [9] | FITC+ (%) [11] | FITC- (%) [11] | Mean (MFI) [11] | binding result [12] | binding result [13] | binding result [14] | other results
1 | CD16 Monoclonal Antibody (3G8), Functional Grade, eBioscience | 82.2% | 17.8% | 88200 | 18000 |  |  |  |  |  |  |  |  |  |  | PE+ [1]: 61.9%; PE+ [3]: 61.1%; PE- [4]: 38.1%
2 | Isotype (antibody) | 0.71% | 99.3% | 25000 | 867 |  |  |  |  |  |  |  |  |  |  | FITC+ (%) [5]: 0.97%; FITC- (%) [5]: 99%; Mean (MFI) [5]: 915; FITC+ (%) [6]: 0.45%; FITC- (%) [6]: 99.6%; Mean (MFI) [6]: 935; PE- [7]: 95.6%; PE- [3]: 90.6%; PE+ [4]: 4.42%
3 | B1 |  |  |  |  | 1.3 nM | 94.1% | 5.78% | 101000 | 98.8% | 1.23% | 97000 | no binding (tested: extract, conc. not given) | no binding (tested: extract, conc. not given) | no binding (tested: extract, conc. not given) | Kd [10]: 1.32 nM; koff [10]: 0.000411 s⁻¹; kon [10]: 309000 M⁻¹ s⁻¹
4 | B2 |  |  |  |  |  |  |  |  |  |  |  |  |  |  | Kd [15]: 31.7 nM; koff [15]: 0.0131 s⁻¹; kon [15]: 412000 M⁻¹ s⁻¹; binding result [16]: no binding; Kd [17]: 0.579 nM; koff [17]: 0.000294 s⁻¹; kon [17]: 505000 M⁻¹ s⁻¹; binding result [18]: no binding (tested: 100 nM)
5 | B3 |  |  |  |  | 0.724 nM | 93.3% | 6.45% | 106000 | 98.4% | 1.59% | 102000 | no binding (tested: extract, conc. not given) | no binding (tested: extract, conc. not given) | no binding (tested: extract, conc. not given) | koff [19]: 0.000702 s⁻¹; kon [19]: 969000 M⁻¹ s⁻¹; EC50 (read off the curve) [20]: ~0.3 nM; EC50 (read off the curve) [21]: ~1 nM
